Data on one molecule can be found in patent US20230002497A1 (INSERM INSTITUT NATIONAL DE LA SANTE ET DE LA RECHERCHE …, published 2023).

The target in the test is T1, recombinant human IL-20Rb (human, UniProt Q6UXL0 30-233).
T1 construct: also called human recombinant IL-20RB; recombinant IL-20RB
T1 sequence: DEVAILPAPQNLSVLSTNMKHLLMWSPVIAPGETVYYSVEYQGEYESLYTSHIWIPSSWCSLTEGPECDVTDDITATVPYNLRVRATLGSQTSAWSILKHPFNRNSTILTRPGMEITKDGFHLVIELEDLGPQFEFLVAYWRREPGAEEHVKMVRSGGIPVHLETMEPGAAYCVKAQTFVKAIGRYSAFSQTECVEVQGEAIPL
The test can be described thus: ELISA on coated recombinant IL-20Rb (FIG. 8).

B1: B7 antibody (native B7 clone), human anti-IL-20Rb antibody (antibody, mouse IgG2a, V domains shown)
VH: EVQLVESGGSLVKPGGSLRLSCAASGFTFSNYSMNWVRQAPGKGLEWISYISGSSRYISYADFVKGRFTISRDNATNSLYLQMNSLRAEDTAVYYCVRSYYGMDVWGRGTLVTVSS
VL: QSVLTQPASVSGSPGQSITISCAGTSSDVGGNYYVSWYQQHPGKAPKLMIYGDSYRPSGVSNRFSGSKSGNTASLTISGLQAEDEADYYCSSYTYYSTRVFGGGTKLAVLG
On to B1, for which the binding result was “binds”.
